Experiment [1] has as its target T1, human BCMA (huBCMA), full length, on cells (human, UniProt Q02223 1-184).
T1 construct: also called native huBCMA; B-cell maturation antigen
T1 chain: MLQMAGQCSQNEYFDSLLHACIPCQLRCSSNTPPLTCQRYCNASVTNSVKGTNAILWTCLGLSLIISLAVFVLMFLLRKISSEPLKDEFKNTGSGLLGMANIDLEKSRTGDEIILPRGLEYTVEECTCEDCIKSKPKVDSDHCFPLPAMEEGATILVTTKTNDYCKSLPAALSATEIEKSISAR
Description: FACS on H929 myeloma cells.

For experiment [2], the target named is T1, human BCMA (huBCMA), full length, on …. Kind of experiment: FACS on H929 cells, native BCMA, relative binding, indirect.
Experiment [3] addresses T2, rrat BCMA fusion protein (GS::6xHis::Sumo::ratBCMA(aa 2-49)::GGS::G3::Avi) (rat).
T2 chain: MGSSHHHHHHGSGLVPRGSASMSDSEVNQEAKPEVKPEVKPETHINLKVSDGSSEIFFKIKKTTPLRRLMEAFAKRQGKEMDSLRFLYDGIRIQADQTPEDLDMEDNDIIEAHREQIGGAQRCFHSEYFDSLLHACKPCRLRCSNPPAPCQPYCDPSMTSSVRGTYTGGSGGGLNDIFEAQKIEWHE
Description: Biacore T200 SPR, antibody captured on anti-human IgG, rBCMA fusion as analyte, 25 C.

For experiment [4], the target named is T3, rhuBCMA fusion protein (6xHis::Sumo::huBCMA(aa 5-51)::GGS::G3::Avi) (human).
T3 construct: Monomeric tagged fusion; the entry holds the tags, Sumo and the BCMA part; also called Sumo-BCMA; SumoBCMA
T3 chain: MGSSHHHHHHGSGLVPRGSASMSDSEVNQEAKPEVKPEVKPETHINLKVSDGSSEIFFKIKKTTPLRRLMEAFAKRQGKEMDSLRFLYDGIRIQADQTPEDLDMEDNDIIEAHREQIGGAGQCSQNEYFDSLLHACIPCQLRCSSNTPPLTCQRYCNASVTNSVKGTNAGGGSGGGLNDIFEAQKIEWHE
Description: Biacore T200 SPR, antibody captured on anti-human IgG, rBCMA fusion as analyte, 25 C, 1:1 model.

Experiment [5] has as its target T4, recombinant soluble human BCMA (Biacore analyte of Example 2) (human, UniProt Q02223 1-54).
T4 construct: also called rhu BCMA; rsol.hu BCMA
T4 sequence: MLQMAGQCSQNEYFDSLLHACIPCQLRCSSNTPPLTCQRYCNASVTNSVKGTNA
Description: Biacore, recombinant soluble human BCMA; measured on parental 2A1; patent says 2A1CV5 binds identically.

Experiment [6] has as its target T4, recombinant soluble human BCMA (Biacore …). Kind of experiment: Biacore 3000 SPR, antibody captured on anti-human IgG, rhu BCMA as analyte, steady state fit to a 1:1 isotherm.

B1: 2A1 Covariance 19 (2A1_K14Q + R17G + T24A + G32S + F44V + G56S + D84N + F88T + T98A + C107A + S108K; 2A1_E144K VL) (antibody, human IgG1, lambda, V domains shown)
VH: EVQLVESGGGLVQPGGSLRLSCAASGFTFSDYALSWVRQAPGKGLEWVSVSRSKAYGGTTDYAASVKGRFTISRDNSKSTAYLQMNSLKAEDTAVYYCAKSGYSSGWTPFDYWGQGTLVTVSS
VL: not shown
notes: also called Ab-37
With B1, the binding result in experiment [1] is “binds”.

B2: Ab-1 (2A1CV5) (antibody, human IgG1, lambda, V domains shown)
VH: EVQLVESGGGLVKPGGSLRLSCAASGFTFGDYALSWFRQAPGKGLEWVGVSRSKAYGGTTDYAASVKGRFTISRDDSKSTAYLQMNSLKTEDTAVYYCASSGYSSGWTPFDYWGQGTLVTVSS
VL: not shown
B2 showed an EC50 in experiment [2] of 1.2 nM. The values for the Kd in experiment [3], in experiment [4] and in experiment [5] were above 10 nM, 0.155 nM and 0.027 nM, respectively.

B3: 11F12 (fully human anti-huBCMA monoclonal antibody) (antibody, V domains shown)
VH: QVQLVESGGGVVQPGRSLRLSCAASGFTFSSYGLHWVRQAPGKGLEWVALISYDGSNKYYADSVKGRFTISRDNSKNTLYLQMNSLRAEDTAVYYCWYSSSWTPLDYWGQGTLVTVSS
VL: DIQMTQSPSSLSASVGDRVTITCRASQGIRNDLGWYQQKPGKAPKRLIYAASSLQSGVPSRFSGSGSGTEFTLTISSLQPEDFATYYCLQYYSYPLTFGGGTKVEIKR
notes: also called Ab-6; 11F12_LC#1
As to B3, the Kd in experiment [6] stood at 36.1 nM.

The values are drawn from US20170165373A1 (Amgen, published 2017).
